Measurements published in patent publication US6753317.
Non-standard residues stand in square brackets, D forms with d. *: point of attachment. Dmt = Cc1cc(O)cc(C)c1C[C@H](N)C(=O)O; Tic = O=C(O)[C@@H]1Cc2ccccc2CN1; NHNH2 = NN*

Legend:
[1] = target: δ-opioid receptor (rat brain synaptosomal preparation) (rat) (UniProt P33533); test: radioligand competition vs [^3H]DPDPE, rat brain synaptosomes
[2] = target: δ-opioid receptor (rat brain synaptosomal preparation) (rat) (UniProt P33533); test: radioligand competition vs [^3H]N,N(CH3)2-Dmt-Tic-OH, rat brain synaptosomes
[3] = target: µ-opioid receptor (rat brain synaptosomal preparation) (rat) (UniProt P33535); test: radioligand competition vs [^3H]DAGO, rat brain synaptosomes
[4] = target: δ-opioid receptor of the mouse vas deferens (MVD) (mouse) (UniProt P32300); test: cell-based or functional assay
δ-opioid receptor of the mouse vas deferens (MVD) (mouse), sequence (P32300 whole entry, stated change not applied): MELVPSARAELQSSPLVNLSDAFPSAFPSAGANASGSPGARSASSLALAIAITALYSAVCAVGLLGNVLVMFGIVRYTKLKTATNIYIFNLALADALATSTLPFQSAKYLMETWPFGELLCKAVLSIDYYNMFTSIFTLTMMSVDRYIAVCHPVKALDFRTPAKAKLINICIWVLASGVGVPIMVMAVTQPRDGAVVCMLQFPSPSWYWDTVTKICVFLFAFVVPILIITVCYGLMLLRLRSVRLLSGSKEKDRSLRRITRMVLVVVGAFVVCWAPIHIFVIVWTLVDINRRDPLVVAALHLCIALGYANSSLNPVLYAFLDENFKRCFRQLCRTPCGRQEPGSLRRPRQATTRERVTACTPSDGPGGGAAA

δ-opioid receptor (rat brain synaptosomal preparation) (rat), sequence (P33533 whole entry, stated change not applied): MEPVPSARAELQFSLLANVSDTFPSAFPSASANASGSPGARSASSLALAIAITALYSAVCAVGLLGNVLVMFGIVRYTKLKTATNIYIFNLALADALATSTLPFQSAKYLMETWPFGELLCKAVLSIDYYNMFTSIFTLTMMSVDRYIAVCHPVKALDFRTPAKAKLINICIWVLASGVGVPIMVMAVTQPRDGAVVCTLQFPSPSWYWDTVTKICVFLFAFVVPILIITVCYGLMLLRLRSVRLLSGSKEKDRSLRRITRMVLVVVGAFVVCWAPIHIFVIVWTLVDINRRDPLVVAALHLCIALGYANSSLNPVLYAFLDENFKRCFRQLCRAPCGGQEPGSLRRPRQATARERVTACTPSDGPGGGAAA
µ-opioid receptor (rat brain synaptosomal preparation) (rat), sequence (P33535 whole entry): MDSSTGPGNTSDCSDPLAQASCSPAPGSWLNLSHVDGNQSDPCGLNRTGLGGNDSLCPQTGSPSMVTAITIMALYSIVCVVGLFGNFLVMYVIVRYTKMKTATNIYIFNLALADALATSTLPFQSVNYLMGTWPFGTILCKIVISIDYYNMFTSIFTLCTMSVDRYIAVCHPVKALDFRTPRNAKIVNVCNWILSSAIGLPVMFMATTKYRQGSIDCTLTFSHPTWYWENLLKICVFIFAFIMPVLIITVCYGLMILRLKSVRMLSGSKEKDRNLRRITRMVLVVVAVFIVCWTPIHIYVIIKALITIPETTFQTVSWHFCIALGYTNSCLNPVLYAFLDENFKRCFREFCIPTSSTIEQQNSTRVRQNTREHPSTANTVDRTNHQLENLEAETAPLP

Row | Substance | Ki [1] | Ki [2] | Ki [3] | fold rise of µ affinity relative to N,N(Me)2-Dmt-Tic-OH [3] | MVD pA2 [4]
1 | [des-NH2-α-pyrrolidine-1-yl]-Dmt-Tic-OH (peptide) | 1.62 nM | 1.42 nM | 814 nM |  | 
2 | N,N(Me)2-Dmt-Tic-NH-1-adamantane (peptide) | 0.16 nM | 0.12 nM | 1.12 nM | 2200 fold | 
3 | H-Dmt-Tic-NH-1-adamantane (peptide) | 0.26 nM | 1.01 nM | 0.76 nM |  | 
4 | H-[Dmt]-[Tic]-OMe | 9.64 nM | 500 nM | 423 nM |  | 
5 | H-[Dmt]-[Tic]-OH |  |  | 3320 nM |  | 
6 | cyclo (DMT-Tic) (peptide) | 9.58 nM |  |  |  | 5.43
7 | H-Dmt-βTic-OH (peptide) | 0.85 nM | 0.71 nM | 418 nM |  | 
8 | N,N(Me)2-Dmt-Tic-OH (peptide) | 0.12 nM | 0.07 nM | 2440 nM |  | 
9 | H-[Dmt]-[Tic]-NH2 | 1.22 nM | 2.13 nM |  |  | 
10 | H-Dmt-Tic-Ala-OH (peptide) | 0.29 nM | 0.29 nM | 813 nM |  | 
11 | H-Dmt-Tic-NH-tetrazole-5-yl (peptide) | 0.7 nM | 9.75 nM | 37 nM |  | 
12 | N,N(Et)2-DMT-Tic-OH (peptide) | 0.92 nM |  |  |  | 
13 | [des-NH2-α-piperidine-1-yl]-Dmt-Tic-OH (peptide) | 1.18 nM | 0.74 nM | 2040 nM |  | 
14 | H-Dmt-Tic-Ala-OMe (peptide) | 0.23 nM | 0.14 nM | 11.3 nM |  | 
15 | H-Dmt-Tic-NH-tBu (peptide) | 0.43 nM | 0.93 nM | 5.96 nM |  | 
16 | H-(R,S)Dmt-Tic-OH (peptide) | 0.46 nM | 0.8 nM | 1160 nM |  | 

Further substances by falling Ki [1], results first:

Row | Ki [1] | Ki [2] | Ki [3] | fold rise of µ affinity relative to N,N(Me)2-Dmt-Tic-OH [3] | MVD pA2 [4] | Substance
17 | 140 nM | 120 nM | 50.5 nM |  |  | N,N(Me)2-Dmt-D-Tic-NH-1-adamantane (peptide)
18 | 24.5 nM | 70.3 nM | 0.26 nM |  |  | H-Dmt-D-Tic-NH-1-adamantane (peptide)
19 | 16.6 nM | 9.94 nM | 5590 nM |  |  | [des-NH2-α-pyrrole-1-yl]-Dmt-Tic-OH (peptide)
20 | 11.2 nM | 475 nM | 1740 nM |  |  | H-αDmt-Tic-OH (peptide)
21 | 0.99 nM | 42 nM | 85.1 nM |  |  | H-[Dmt]-[Tic]-NHNH2
22 | 0.61 nM | 0.11 nM | 226 nM |  |  | N,N(Me)2-Dmt-Tic-NH-tBu (peptide)
23 | 0.54 nM | 0.28 nM | 359 nM |  |  | N,N(Me)2-Dmt-Tic-NHMe (peptide)
24 | 0.47 nM | 1.24 nM | 85.5 nM |  |  | H-[Dmt]-[Tic]-NHMe
25 | 0.24 nM | 0.69 nM | 47 nM |  |  | H-Dmt-Tic-Ala-NH2 (peptide)
26 | 0.073 nM | 0.04 nM | 2.52 nM |  |  | H-Dmt-Tic-Ala-NH-1-adamantane (peptide)
27 | 0.066 nM | 0.08 nM | 4.03 nM |  |  | H-Dmt-Tic-Ala-NH-tBu (peptide)
28 | 0.058 nM | 0.12 nM | 5.75 nM |  |  | H-Dmt-Tic-Ala-NHMe (peptide)
